Reference: the supplement of paper PMC9112550, “Optimization of the antimicrobial peptide Bac7 by deep mutational scanning” (BMC Biology, 2022)

System: Escherichia coli TOP10
Assay: shrunken log2 fold change of peptide-encoding DNA abundance (4.5 h post-induction vs induction); higher = less antimicrobial activity (less host growth inhibition)
Conditions: time post-induction: 4.5 h; library: site-saturation at positions 5, 18, 19, 20
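Note: peptides expressed intracellularly from a pBAD plasmid library in pooled LB shake-flask culture, induced with 0.3% L-arabinose, DNA abundance read by NGS, three biological replicates, DESeq2 with apeglm shrinkage.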

RRIRARPPRLPRPRPRPFNEPRP and RRIRQRPPRLPRPRPRPDHAPRP are within 0.2 log units of each other in “shrunken log2 fold change” value: -0.1 for the first, 0.014 for the second.

First: RRIRHRPPRLPRPRPRPGTMPRP
Second: RRIRARPPRLPRPRPRPHPPPRP
The “shrunken log2 fold change” value of the first is lower: -0.0455 for the first, 0.706 for the second.

First: RRIRLRPPRLPRPRPRPNQEPRP
Second: RRIRIRPPRLPRPRPRPNQCPRP
The “shrunken log2 fold change” value of the first is higher: 0.0423 for the first, -0.465 for the second.

Compared with RRIRNRPPRLPRPRPRPLIYPRP, RRIRRRPPRLPRPRPRPLAQPRP is higher in “shrunken log2 fold change” value: -0.114 for the first, 0.498 for the second.

Going from RRIRFRPPRLPRPRPRPICRPRP to RRIRGRPPRLPRPRPRPPTCPRP, the “shrunken log2 fold change” value rises from -0.0837 to 0.172.

RRIRQRPPRLPRPRPRPQTVPRP and RRIRRRPPRLPRPRPRPIIYPRP are within 0.2 log units of each other in “shrunken log2 fold change” value: -0.0925 for the first, -0.0798 for the second.

Compared with RRIRSRPPRLPRPRPRPIPHPRP, RRIRKRPPRLPRPRPRPKIDPRP is higher in “shrunken log2 fold change” value: -0.184 for the first, 0.545 for the second.

First: RRIRNRPPRLPRPRPRPAKLPRP
Second: RRIRTRPPRLPRPRPRPVQRPRP
The “shrunken log2 fold change” value of the first is lower: -0.153 for the first, 0.132 for the second.

RRIRSRPPRLPRPRPRPWICPRP and RRIRWRPPRLPRPRPRPNYAPRP are within 0.2 log units of each other in “shrunken log2 fold change” value: -0.15 for the first, -0.0925 for the second.

Going from RRIRPRPPRLPRPRPRPFYGPRP to RRIRMRPPRLPRPRPRPHLAPRP, the “shrunken log2 fold change” value rises from -0.142 to 1.6.

Compared with RRIRYRPPRLPRPRPRPYCYPRP, RRIRCRPPRLPRPRPRPDANPRP is higher in “shrunken log2 fold change” value: -1.12 for the first, -0.00199 for the second.

RRIRMRPPRLPRPRPRPCRHPRP and RRIRIRPPRLPRPRPRPDMRPRP are within 0.2 log units of each other in “shrunken log2 fold change” value: -0.0252 for the first, -0.0655 for the second.

First: RRIRYRPPRLPRPRPRPNMFPRP
Second: RRIRRRPPRLPRPRPRPHGKPRP
The “shrunken log2 fold change” value of the first is lower: -0.186 for the first, 0.0359 for the second.

First: RRIRKRPPRLPRPRPRPCGGPRP
Second: RRIRVRPPRLPRPRPRPENVPRP
The “shrunken log2 fold change” value of the first is higher: 0.225 for the first, -0.0136 for the second.

Going from RRIRYRPPRLPRPRPRPSHYPRP to RRIRGRPPRLPRPRPRPWWVPRP, the “shrunken log2 fold change” value rises from -0.966 to 0.0839.

RRIRARPPRLPRPRPRPFGGPRP and RRIRLRPPRLPRPRPRPARAPRP are within 0.2 log units of each other in “shrunken log2 fold change” value: 0.0726 for the first, 0.268 for the second.

RRIRRRPPRLPRPRPRPMPIPRP and RRIRRRPPRLPRPRPRPIPSPRP are within 0.2 log units of each other in “shrunken log2 fold change” value: 0.25 for the first, 0.247 for the second.

Going from RRIRWRPPRLPRPRPRPKNEPRP to RRIRRRPPRLPRPRPRPCCKPRP, the “shrunken log2 fold change” value falls from 0.177 to -0.0824.

First: RRIRGRPPRLPRPRPRPFRAPRP
Second: RRIRPRPPRLPRPRPRPFLIPRP
The “shrunken log2 fold change” value of the first is higher: 0.209 for the first, -0.459 for the second.

Compared with RRIRCRPPRLPRPRPRPYYCPRP, RRIRERPPRLPRPRPRPCKPPRP is higher in “shrunken log2 fold change” value: -1.03 for the first, 0.0172 for the second.

Compared with RRIRGRPPRLPRPRPRPRMNPRP, RRIRWRPPRLPRPRPRPPGQPRP is lower in “shrunken log2 fold change” value: 0.572 for the first, 0.123 for the second.

Compared with RRIRERPPRLPRPRPRPLHCPRP, RRIRTRPPRLPRPRPRPFPCPRP is lower in “shrunken log2 fold change” value: 0.0821 for the first, -0.197 for the second.

RRIRCRPPRLPRPRPRPQRFPRP and RRIRWRPPRLPRPRPRPILCPRP are within 0.2 log units of each other in “shrunken log2 fold change” value: -0.0259 for the first, 0.00316 for the second.

Compared with RRIRYRPPRLPRPRPRPGGCPRP, RRIRIRPPRLPRPRPRPNLLPRP is lower in “shrunken log2 fold change” value: 0.0169 for the first, -0.309 for the second.

Compared with RRIRGRPPRLPRPRPRPPMNPRP, RRIRMRPPRLPRPRPRPGYTPRP is lower in “shrunken log2 fold change” value: 0.464 for the first, -0.177 for the second.

Going from RRIRSRPPRLPRPRPRPCPMPRP to RRIRMRPPRLPRPRPRPTEDPRP, the “shrunken log2 fold change” value rises from -0.337 to 1.9.

RRIRFRPPRLPRPRPRPAHKPRP and RRIRCRPPRLPRPRPRPGDWPRP are within 0.2 log units of each other in “shrunken log2 fold change” value: 0.225 for the first, 0.377 for the second.

First: RRIRERPPRLPRPRPRPTDNPRP
Second: RRIRFRPPRLPRPRPRPFTHPRP
The “shrunken log2 fold change” value of the first is lower: -0.841 for the first, -0.296 for the second.

Compared with RRIRVRPPRLPRPRPRPSRRPRP, RRIRDRPPRLPRPRPRPVAVPRP is higher in “shrunken log2 fold change” value: 0.157 for the first, 0.453 for the second.

Compared with RRIRMRPPRLPRPRPRPRQQPRP, RRIRHRPPRLPRPRPRPKKNPRP is lower in “shrunken log2 fold change” value: 0.854 for the first, -0.14 for the second.

First: RRIRKRPPRLPRPRPRPKPVPRP
Second: RRIRDRPPRLPRPRPRPSNVPRP
The “shrunken log2 fold change” value of the first is higher: 0.39 for the first, -0.0805 for the second.

Going from RRIRPRPPRLPRPRPRPVYQPRP to RRIRCRPPRLPRPRPRPEMPPRP, the “shrunken log2 fold change” value rises from -0.0913 to 0.65.

First: RRIRMRPPRLPRPRPRPNLEPRP
Second: RRIRLRPPRLPRPRPRPSAVPRP
The “shrunken log2 fold change” value of the first is higher: 0.284 for the first, -0.16 for the second.

RRIRNRPPRLPRPRPRPVIVPRP and RRIRLRPPRLPRPRPRPERRPRP are within 0.2 log units of each other in “shrunken log2 fold change” value: -0.112 for the first, -0.0189 for the second.

First: RRIRTRPPRLPRPRPRPERGPRP
Second: RRIRSRPPRLPRPRPRPVGFPRP
The “shrunken log2 fold change” value of the first is higher: 0.715 for the first, 0.334 for the second.

Going from RRIRTRPPRLPRPRPRPSHDPRP to RRIRMRPPRLPRPRPRPEVFPRP, the “shrunken log2 fold change” value rises from -0.459 to 1.35.

RRIRIRPPRLPRPRPRPNDRPRP and RRIRYRPPRLPRPRPRPIIGPRP are within 0.2 log units of each other in “shrunken log2 fold change” value: -0.0756 for the first, -0.178 for the second.

RRIRDRPPRLPRPRPRPTRIPRP and RRIRYRPPRLPRPRPRPLCSPRP are within 0.2 log units of each other in “shrunken log2 fold change” value: 0.0348 for the first, -0.0549 for the second.

Compared with RRIRGRPPRLPRPRPRPWMRPRP, RRIRWRPPRLPRPRPRPFTCPRP is lower in “shrunken log2 fold change” value: 0.444 for the first, 0.000407 for the second.

Compared with RRIRTRPPRLPRPRPRPWGPPRP, RRIRYRPPRLPRPRPRPLRIPRP is lower in “shrunken log2 fold change” value: -0.0265 for the first, -0.36 for the second.

First: RRIRVRPPRLPRPRPRPTGRPRP
Second: RRIRPRPPRLPRPRPRPSYMPRP
The “shrunken log2 fold change” value of the first is higher: 0.274 for the first, -0.962 for the second.

First: RRIRPRPPRLPRPRPRPCEGPRP
Second: RRIRERPPRLPRPRPRPSKLPRP
The “shrunken log2 fold change” value of the first is higher: 0.156 for the first, -1.06 for the second.

First: RRIRWRPPRLPRPRPRPTCCPRP
Second: RRIRTRPPRLPRPRPRPTHKPRP
The “shrunken log2 fold change” value of the first is higher: 1.13 for the first, -0.0156 for the second.

Compared with RRIRARPPRLPRPRPRPTPRPRP, RRIRQRPPRLPRPRPRPCWGPRP is lower in “shrunken log2 fold change” value: 1.5 for the first, 0.0281 for the second.

RRIRCRPPRLPRPRPRPGTCPRP and RRIRKRPPRLPRPRPRPNKTPRP are within 0.2 log units of each other in “shrunken log2 fold change” value: -0.143 for the first, -0.227 for the second.

First: RRIRQRPPRLPRPRPRPYRKPRP
Second: RRIRMRPPRLPRPRPRPAHRPRP
The “shrunken log2 fold change” value of the first is lower: -0.0156 for the first, 0.444 for the second.

Compared with RRIRGRPPRLPRPRPRPGFAPRP, RRIRWRPPRLPRPRPRPLIDPRP is lower in “shrunken log2 fold change” value: 0.831 for the first, 0.00313 for the second.

Going from RRIRMRPPRLPRPRPRPCFLPRP to RRIRGRPPRLPRPRPRPAFHPRP, the “shrunken log2 fold change” value rises from -0.117 to 0.209.

Going from RRIRLRPPRLPRPRPRPCTLPRP to RRIRCRPPRLPRPRPRPVGLPRP, the “shrunken log2 fold change” value rises from -0.328 to 0.0659.

Compared with RRIRLRPPRLPRPRPRPITMPRP, RRIRIRPPRLPRPRPRPAVGPRP is higher in “shrunken log2 fold change” value: -0.168 for the first, 0.455 for the second.

Compared with RRIRMRPPRLPRPRPRPTACPRP, RRIRSRPPRLPRPRPRPMRSPRP is lower in “shrunken log2 fold change” value: 1.02 for the first, 0.0162 for the second.

RRIRLRPPRLPRPRPRPTDYPRP and RRIRFRPPRLPRPRPRPSWQPRP are within 0.2 log units of each other in “shrunken log2 fold change” value: -0.286 for the first, -0.149 for the second.

Compared with RRIRSRPPRLPRPRPRPQKCPRP, RRIRLRPPRLPRPRPRPGKRPRP is higher in “shrunken log2 fold change” value: 0.0984 for the first, 0.364 for the second.

Compared with RRIRLRPPRLPRPRPRPKNKPRP, RRIRNRPPRLPRPRPRPHKAPRP is higher in “shrunken log2 fold change” value: -0.291 for the first, 0.00883 for the second.

In the case of RRIRSRPPRLPRPRPRPSTEPRP, the “shrunken log2 fold change” value is reported as -0.0608.
